According to patent US5656591A, “Antimicrobial agents and method for treating products therewith” (Morinaga Milk Industry Co., Ltd., priority 1992, dated 1997):

What was measured:
[1] = tested on: Staphylococcus aureus (JCM-2151); assay: Viability assay (survival rate) in cow's milk medium; assay type: cell-based
Experimental: The colonies grown on the culture medium were scraped by a platinum loop and cultivated in 1% peptone (by Difco Company) culture medium for several hours at 37° C., and the resultant microbial culture at logarithmic phase was used as the preculture in a serial concentration of 3×10^8 /ml.
A quantity of the resultant solutions of the samples were selectively mixed with a quantity of the basal medium, thereby test media for the respective tests were prepared in the combinations and eventual concentrations as specified in the respective tests.
Utilizing the samples (5), (7), (8), (9), (10), (14), (15), (17), (18) and (19), test media were prepared in the same manner as in the preparation of the test media containing sample (3) and the like, except that the aqueous solution (in the cases of samples (5) and (7), aqueous suspensions) were not dealt with sterilization filters.
To 2 ml aliquots of test media prepared in (3-1) (supra), […] aliquots of the preculture of Staphylococcus aureus prepared in (1) (2. Method, supra) were added, then incubated at 37° C. for 1 hour, 200 μl aliquots of the resultant cultures were taken out and diluted with 1% peptone solution in a series of 10^n respectively, 110 μl aliquots of the resultant dilution series were spread onto plates of standard agar culture medium, and after incubation at 37° C. for 24 hours the number of colonies grown on the plates were counted (Test. Colony Count).
Control coloney counts 1 were determined in the same manner as in the determination of the test coloney counts, except that […] aliquots of the preculture of Staphylococcus aureus prepared in (1) (2. Method, supra) were added to 2 ml aliquots of the respective control media 1 prepared in (3-2) (supra). Furthermore, control coloney counts 2 were determined in the same manner as in the determination of the test coloney counts, except that […] aliquots of the preculture of Staphylococcus aureus prepared in (1) (supra) were added to 2 ml aliquots of the respective control media 1 prepared in (3-2) (supra).
Survival rate 1=(Test Colony Count/Control Colony Count 1)×100
Survival rate 2=(Control Colony Count 2/Control Colony Count 1)×100
(Note: In the tables shown hereinafter, vulues of survival rate 2 are indicated in the row where the concentration of antimicrobial peptide or lactoferrin hydrolysate is 0.)

[2] = tested on: microorganisms belonging to the genera of Staphylococcus and Enterococcus; conditions: Journal of Dairy Science, Vol. 67, page 606, 1984; cited from earlier work

B1: lactoferrin: Bovine lactoferrin on the market (by Sigma Company) (protein)
chain: APRKNVRWCTISQPEWFKCRRWQWRMKKLGAPSITCVRRAFALECIRAIAEKKADAVTLDGGMVFEAGRDPYKLRPVAAEIYGTKESPQTHYYAVAVVKKGSNFQLDQLQGRKSCHTGLGRSAGWIIPMGILRPYLSWTESLEPLQGAVAKFFSASCVPCIDRQAYPNLCQLCKGEGENQCACSSREPYFGYSGAFKCLQDGAGDVAFVKETTVFENLPEKADRDQYELLCLNNSRAPVDAFKECHLAQVPSHAVVARSVDGKEDLIWKLLSKAQEKFGKNKSRSFQLFGSPPGQRDLLFKDSALGFLRIPSKVDSALYLGSRYLTTLKNLRETAEEVKARYTRVVWCAVGPEEQKKCQQWSQQSGQNVTCATASTTDDCIVLVLKGEADALNLDGGYIYTAGKCGLVPVLAENRKSSKHSSLDCVLRPTEGYLAVAVVKKANEGLTWNSLKDKKSCHTAVDRTAGWNIPMGLIVNQTGSCAFDEFFSQSCAPGADPKSRLCALCAGDDQGLDKCVPNSKEKYYGYTGAFRCLAEDVGDVAFVKNDTVWENTNGESTADWAKNLNREDFRLLCLDGTRKPVTEAQSCHLAVAPNHAVVSRSDRAAHVKQVLLHQQALFGKNGKNCPDKFCLFKSETKNLLFNDNTECLAKLGGRPTYEEYLGTEYVTAIANLKKCSTSPLLEACAFLTR
- survival rate ([1]; Test 1: peptide 0, lactoferrin 0.1 mg/ml): 150
- survival rate ([1]; Test 1: peptide 0, lactoferrin 1 mg/ml): 150
- survival rate ([1]; Test 1: peptide 0, lactoferrin 10 mg/ml): 104
- survival rate ([1]; Test 20: peptide 0, 1-monolauroyl-rac-glycerol 0, bovine lactoferrin 1 mg/ml): 105%
- antimicrobial activity of the compound added without antimicrobial peptide or lactoferrin hydrolysate (in words) ([1]; compound alone): no antimicrobial activity was observed
- effect of the coexisting compound on the antimicrobial activity of the antimicrobial peptide (in words) ([1]; with antimicrobial peptide Seq. ID No. 26): augments the antimicrobial activity of the peptide
- effect of the coexisting compound on the antimicrobial activity of the antimicrobial peptide (in words) ([1]; with antimicrobial peptide Seq. ID No. 27): further augments the antimicrobial activity of the antimicrobial peptides
- concentration in which lactoferrin exhibits antimicrobial activity [2]: 0.5 to 80 mg/mL
